Assay results from US20180222961A1 (IMMATICS BIOTECHNOLOGIES, published 2018).

The binders below were run against T1, HLA-A*02:01 (human) (assay: UV-exchange b2m ELISA; exchange-yield grade).
T1 construct: also called peptide-receptive MHC molecules
Procedure, shortened: (§1)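 Peptide–MHC complexes formed by UV-ligand exchange, in which a UV-cleavable peptide is replaced by the test peptide. Exchange yield measured by ELISA detecting β2m of stabilised complexes captured on streptavidin, against refolded HLA-A*02:01/MLA-001 monomer standards (15-500 ng/ml); samples diluted 100-fold.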

Binder | peptide exchange yield [%]
ISVPAKTSL | 10 to 20
RQPNILVHL | 20 to 50
RLWDWVPLA | > 75
RLLDFINVL | > 75
STIPALHEI | 50 to 75
SLPRFQVTL | > 75
YASEGVKQV | 50 to 75
KVVSVLYNV | > 75
ALMRLIGCPL | > 75
VLLAGFKPPL | 10 to 20
ALQAFEFRV | > 75
SVTESTHHL | 50 to 75
SAIPFSMTL | 50 to 75
ALIYNLVGI | > 75
ALFKAWAL | > 75
YTFRYPLSL | 50 to 75
DTDSSVHVQV | 10 to 20
RMTTQLLLL | 50 to 75
FAHHGRSL | 10 to 20
TISSLTHEL | > 75
VSSSLTLKV | 10 to 20
IMFDDAIERA | > 75
YLVTKVVAV | > 75
SLGKHTVAL | 50 to 75
GVATRVDAI | 20 to 50
PLPRPGAVL | 10 to 20
SLLDLYQL | 20 to 50

What follows are binders tested against T2, HLA-A*24:02 (human) (assay: UV-exchange b2m ELISA; exchange-yield grade).
T2 construct: also called peptide-receptive MHC molecules
Procedure, shortened: as §1

Binder | peptide exchange yield [%]
RFTTMLSTF | > 75
SYSDLHYGF | > 75
KYEKIFEML | > 75
IYSPQFSRL | > 75
RYSDSVGRVSF | > 75
FYFPTPTVL | > 75
VYTFLSSTL | > 75
VYHDDKQPTF | > 75

What follows are binders tested against T3, human recombinant HLA-B*08:01 and b2m (human) (assay: pMHC dissociation assay at 37 C; mean half-life grade).
T3 construct: expressed in E. coli and purified; stability of the peptide-MHC complex read as b2m associated with the heavy chain over time at 37 C
Method: Peptide-MHC stability assays for HLA-B*08:01 peptides were performed. The data were obtained using a proximity based, homogenous, real-time assay in order to measure the dissociation of peptides from HLA class I molecules. First, human recombinant HLA-B*08:01 and b2m were expressed in E. coli and purified in a series of liquid chromatography based steps (Ferre et al., 2003; Ostergaard et al., 2001). Then, the stability of a peptide-MHC complex (pMHC) was determined by measuring the amount of b2m associated with the MHC heavy chain over time at 37° C. (Harndahl et al., 2012). The stability of each pMHC, expressed as the half life of b2m associated with the respective heavy chain, was calculated by fitting the data to a one-phase dissociation equation.

Binder | mean half-life (T1/2) of peptide-MHC complex [h]
LPRLKAFMI | 4 to 6
DVKKKIKEV | 2 to 4
HVKEKFLL | 4 to 6
YPKARLAF | 6 to 10
MPNLRSVDL | 4 to 6
YLLEKSRVI | 4 to 6
VLKHKLDEL | 2 to 4
LNKQKVTF | > 10
DMKKAKEQL | 2 to 4
MGSARVAEL | 4 to 6
ALKARTVTF | 6 to 10
HLLLKVLAF | 4 to 6
MLRKIAVAA | 2 to 4
QAKTHSTL | 2 to 4
MAAVKQAL | 4 to 6
NAMLRKVAV | 2 to 4

Binder | mean half-life (T1/2) of peptide-MHC complex [h]
TSMPRSSAM | 6 to 10
EAMKRLSYI | 2 to 4
VLLPRLVSC | 2 to 4
KLKERNREL | 6 to 10
FAFRKEAL | 4 to 6
SIKTKSAEM | 6 to 10
VGREKKLAL | 4 to 6
ALKTTTTAL | 2 to 4
TPKLRETSI | 4 to 6
TSHERLTTL | 4 to 6
QGLLRPVF | 4 to 6
LPKLAGLL | 2 to 4
DMKYKNRV | 2 to 4
MYKMKKPI | 2 to 4
SLRLKNVQL | 2 to 4
